Tests used:
[1] = target: human PD-1 ECD (human); assay: SPR, 37 °C
[2] = target: human PD-1 (human) (UniProt Q15116); assay: cell-based or functional assay
human PD-1 (human), sequence (Q15116 25-288): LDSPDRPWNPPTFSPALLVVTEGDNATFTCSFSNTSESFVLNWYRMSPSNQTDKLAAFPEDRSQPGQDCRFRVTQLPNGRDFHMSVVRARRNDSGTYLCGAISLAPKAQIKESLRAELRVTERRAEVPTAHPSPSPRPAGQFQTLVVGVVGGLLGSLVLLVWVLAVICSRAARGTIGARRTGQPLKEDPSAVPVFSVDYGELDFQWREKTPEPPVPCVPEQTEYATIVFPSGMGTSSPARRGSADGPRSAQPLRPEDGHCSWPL

human PD-1 ECD (human), sequence (Q15116 25-170): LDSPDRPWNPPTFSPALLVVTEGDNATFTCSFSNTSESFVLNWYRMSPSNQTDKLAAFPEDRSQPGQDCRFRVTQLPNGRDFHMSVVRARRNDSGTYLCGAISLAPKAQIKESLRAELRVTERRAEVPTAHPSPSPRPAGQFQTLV

B1: G2 IgG1 mAb (antibody, INN chains, looked up, V domains shown)
VH: QVQLVQSGAEVKKPGASVKVSCKVSGYSLSKYDMSWVRQAPGKGLEWMGIIYTSGYTDYAQKFQGRVTMTEDTSTDTAYMELSSLRSEDTAVYYCATGNPYYTNGFNSWGQGTLVTVSS
VL: DIQMTQSPSSLSASVGDRVTITCQASQSPNNLLAWYQQKPGKAPKLLIYGASDLPSGVPSRFSGSGSGTDFTLTISSLQPEDFATYYCQNNYYVGPVSYAFGGGTKVEIK
modifications: IgG1
Which Kd [1] does the source give for B1 here?
The Kd was 2.3 nM.

What about the % ADCC Activated T cells, mean [2] of the same binder?
Its % ADCC Activated T cells, mean is 3.3%.

And the % ADCC PBMC, mean [2]?
Its % ADCC PBMC, mean is 0.2%.

And the % Inhibition Proliferation, mean (SEB assay) [2]?
Its % Inhibition Proliferation, mean (SEB assay) is 36.9%.

And the % PD-1 Expression Inhibition, mean (SEB assay) [2]?
The % PD-1 Expression Inhibition, mean (SEB assay) was 50.8%.

What about the % T cell Proliferation Inhibition, mean (SEB assay) [2] of the same binder?
Its % T cell Proliferation Inhibition, mean (SEB assay) is 56.5%.

Reference: patent US20260070983A1
